For this experiment, the target named is its ligand (ligand of TR2, not identified). Nature of the experiment: cell-based or functional assay.

In turn, “TR2-Fc fusion protein (TR2 extracellular domain fused to human IgG1 Fc, pcDNA3, NIH 3T3) (from UniProt Q92956 37-200)” displayed an allogeneic MLR-mediated proliferation of PBMC ([3H]-thymidine incorporation) of under 53%.

The record behind these values is US7429646.
